Earlier results as cited in article PMC4301871, “WW Domains of the Yes-Kinase-Associated-Protein (YAP) Transcriptional Regulator Behave as Independent Units with Different Binding Preferences for PPxY Motif-Containing Ligands” (PLoS ONE, 2015).
Where two headings read alike, the source gives them in different places.

What was measured:
p53BP2 (Homo sapiens) [1] = molecular target: p53BP2 (Homo sapiens)
p53BP2 (Homo sapiens) [2] = molecular target: p53BP2 (Homo sapiens); remark: listed apart in the source

Sequence of YAP WW2 (P46937 227-266): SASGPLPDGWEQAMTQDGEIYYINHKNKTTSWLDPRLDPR
Sequence of YAP WW1 (P46937 168-207): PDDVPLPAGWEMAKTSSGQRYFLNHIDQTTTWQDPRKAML

Row | Substance | Kd (p53BP2 (Homo sapiens) [1]) | Kd (p53BP2 (Homo sapiens) [2])
1 | YAP WW2 (from UniProt P46937) | 12 µM | 
2 | YAP WW1 (from UniProt P46937) |  | 1.8 µM
